Laboratory results published in patent publication US7329737 (DYAX, dated 2008).

Key:
[1] = target: T1, hK1 (human tissue kallikrein 1), recombinant (human, UniProt P06870 25-262); experiment: SPR
T1 construct: Expressed in P. pastoris from KLK1 cDNA and purified; enzymatically active; also called KLK1; Recombinant (Pichia) Kallikrein

[2] = target: T1, hK1 (human tissue kallikrein 1), …; experiment: cell-based or functional assay
[3] = target: T1, hK1 (human tissue kallikrein 1), …; experiment: SPR, biotinylated hK1 on streptavidin chip; Fab 50 nM after DX-2300 50 nM (competitor DX-2300)
Text: Epitope grouping by SPR. Biotinylated hK1 was captured on a streptavidin coated chip to a final ligand density of 88 RU. […] The signal at the end of the injection of the Fab alone is R2.

Binder	Kd [1] [nM]	koff [1] [s⁻¹]	kon [1] [M⁻¹ s⁻¹]	IC50 (nM), inhibition of hK1 enzyme activity [2] [nM]	IC50 (nM), inhibition of hK1 hydrolysis of Pro-Phe-Arg-AMC [2] [nM]	Fab Signal following DX-2300 (R1) [3]
M0136-E10 (Fab, V domains shown) VH: EVQLLESGGGLVQPGGSLRLSCAASGFTFSPYNMAWVRQAPGKGLEWVSSIWPSGGRTRYADSVKGRFTISRDNSKNTLYLQMNSLRAEDTAVYYCAKGVRSSGLLERGRVYDAFDIWGQGTMVTVSS VL: DIQMTQSPGTLSLSPGERATLSCRASQSVTTFLAWYQRKPGQAPRLLIYGASSRAADIPDRFSGSGSGTDFTLTISRLEPEDLAVYYCQQYRFSPPTFGPGTTVDIRR	9.66	0.00106	110000	22		
M0114-G06 (Fab, V domains shown) VH: EVQLLESGGGLVQPGGSLRLSCAASGFTFSYYEMEWVRQAPGKGLEWVSSIRPSGGRTVYADSVKGRFTISRDNSKNTLYLQMNSLRAEDTAVYYCAKGRSNYYGSGSYSPKYFQHWGQGTLVTVSS VL: DIQMTQSPSSLSASVGDRVTITCRASQGISSWLAWYQQRPERAPKSLIYAASSLERGVPSRFRGSGSGTDFTLTISSLQPEDFGTYYCQQYHNFPLTFGGGTRVEINR	0.999	0.000166	167000		1.2	4.8
M0102-E09 (Fab, V domains shown) VH: EVQLLESGGGLVQPGGSLRLSCAASGFTFSLYLMEWVRQAPGKGLEWVSSIGSSGGATWYADSVKGRFTISRDNSKNTLYLQMNSLRAEDTAMYYCATDTSRVAGTRLRNYYYYYGMDVWGQGTTVTVSS VL: DIQMTQSPDSLSLSPGERATLSCRASQSISSSYLAWYQQTPGQAPRLLIYHASSRATGVPARFSGSGSGTDFTLTISSLEPEDFAVYYCQQRNNWPPSFTFGGGTKVETKR					0.89	
M0102-H11 (Fab, V domains shown) VH: EVQLLESGGGLVQPGGSLRLSCAASGFTFSKYPMTWVRQAPGKGLEWVSSISSSGGKTQYADSVKGRFTISRDNSKNTLYLQMNSLRAEDTAVYYCTRGGSSTLYFMDVWGQGTTVTVSS VL: DIQMTQSPATLSLSPGERATLSCRASQSVSSYLAWYQQKPGQAPRLLIYGASSRATGIPDRFSGSGSGTDFTLTISSLEPEDFAVYYCQQRGGWPLTFGGGTKVEIRR	3.24	0.00741	2.29e+06		4.5	
M0098-E09 (Fab, V domains shown) VH: EVQLLESGGGLVQPGGSLRLSCAASGFTFSRYGMQWVRQAPGKGLEWVSYIYPSGGGTVYADSVKGRFTISRDNSKNTLYLQMNSLRAEDTAVYYCARRVAVAGSWYYYYYGMDVWGQGTTVTVSS VL: DIQMTQSPSSVSASVGDSVTISCWTIYDISSWLAWYQQRPGQAPKLLIYAASRLATGVPSRFRGSGSGTDFTLTITNLQPEDVATYYCQQTKDFPLTFGGGTRVDLKR	1.91	0.00159	836000		2.5	8.5
M0139-E12 (Fab, V domains shown) VH: EVQLLESGGGLVQPGGSLRLSCAASGFTFSWYSMNWVRQAPGKGLEWVSSIGPSGGGTKYADSVKGRFTISRDNSKNTLYLQMNSLRAEDTAVYYCASRGQRKQWLPPNGAFDIWGQGTMVTVSS VL: DIQMTQSPSSVSASVGDRVTMTCRASRGISNWLAWYQQKPGKAPELLIHSASTLHAGVPSRFSGSGSGTDFTLTISSLQPGDFATYYCQEGNSFPYTFGQGTNLQIKR	1.87	0.000233	125000		2.9	
M0111-D11 (Fab, V domains shown) VH: EVQLLESGGGLVQPGGSLRLSCAASGFTFSWYAMMWVRQAPGKGLEWVSSIWPSGGHTKYADSVKGRFTISRDNSKNTLYLQMNSLRAEDTAVYYCATDQGYFWGQGTLVTVSS VL: DIQMTQSPATLSLSPGDRATLSCRASQRVSSTFLAWYQQRPGQAPRLVIFGTSSRATGIPDRFSGSGSGTDFTLTISRLEPEDFAVYYCHQYGSSPRTFGQGTKVEIKR				160		
M0138-C09 (Fab, V domains shown) VH: EVQLLESGGGLVQPGGSLRLSCAASGFTFSPYRMSWVRQAPGKGLEWVSVISPSGGITEYADSVKGRFTISRDNSKNTLYLQMNSLRAEDTAVYYCAKHERGSGYYVTPPAGAFDIWGQGTMVTVSS VL: AQSELTQPASVAGSPGQSITISCTGTSSDVGLYNFVSWYQQHPGKAPKLMIYDVSRRPSGVSNRFSASKSGTRASLTVSGLQAEDEADYYCSSYAGSNNYVFGTGTKVTVLG	8.78	0.00153	175000		10.9	
M0106-G12 (Fab, V domains shown) VH: EVQLLESGGGLVQPGGSLRLSCAASGFTFSWYRMHWVRQAPGKGLEWVSSIWPSGGKTHYADSVKGRFTISRDNSKNTLYLQMNSLRAEDTAVYYCARALQYGSGSYFYAPKSYYYYGMDVWGQGTTVTVSS VL: DIQMTQSPSFVSASIGDRVTITCRASQSIGTLLNWYQHKPGTVPSLLIYGNLRGGVPARFSGSGSGTDFTLTISSLQPEDFATYYCQHDTFGGGTKVDIKR					5.1	
M0110-F08 (Fab, V domains shown) VH: EVQLLESGGGLVQPGGSLRLSCAASGFTFSNYVMYWVRQAPGKGLEWVSGIGPSGGFTTYADSVKGRFTISRDNSKNTLYLQMNSLRAEDTAVYYCTRDRYFGSGYYMAAYYYYGMDVWGQGTTVTVSS VL: DIQMTQSPGTLSLSPGERATLSCRASQSVVSNFLAWYQQKPGQAPRLLIYGASSRATGIPDRFSGSGSGTDFILTISRLEPEDFAVYYCQQYGSSPYSFGQGTKLEIKR				44		
M0139-A09 (Fab, V domains shown) VH: EVQLLESGGGLVQPGGSLRLSCAASGFTFSWYFMVWVRQAPGKGLEWVSGIGPSGGLTTYADSVKGRFTISRDNSKNTLYLQMNSLRAEDTAVYYCARSDWLNYWGQGTLVTVSS VL: DIVMTQTPPSLPVNPGEPASISCRSSQSLVYSDGNTYLNWFQQRPGQSPRRLIYKVSNRDSGVPDRFSGSGSGTDFTLKISRVEAEDVGVYYCMQGTHWQRLTFGGGTKVEIKR	5.48	0.00106	194000	34		25.7
M0136-A07 (Fab, V domains shown, No HC-136-A07 entry is printed) VH: EVQLLESGGGLVQPGGSLRLSCAASGFTFSWYHMYWVRQAPGKGLEWVSYIRPSGGNTNYADSVKGRFTISRDNSKNTLYLQMNSLRAEDTAMYYCARDRRGYSSSKGYYYYGMDVWGQGTTVTVSS VL: not shown	7.98	0.00258	323000	25		5
M0097-F03 (Fab, V domains shown) VH: EVQLLESGGGLVQPGGSLRLSCAASGFTFSNYLMYWVRQAPGKGLEWVSSIRPSGGNTLYADSVKGRFTISRDNSKNTLYLQMNSLRAEDTAVYYCRRGILTGYYWGYYYYMDVWGKGTTVTVSS VL: DIQMTQSPATLSVSPGGRATLSCRASQSVRKNVAWYQQKPGQPPRLLIYGASTRATGVPARFSGSGSGTEFTLTISRMQPEDFVVYHCQQYSSWPAFGQGTMVEINR					1.1	
M0139-F04 (Fab, V domains shown) VH: EVQLLESGGGLVQPGGSLRLSCAASGFTFSRYYMEWVRQAPGKGLEWVSSISSSGGSTEYADSVKGRFTISRDNSKNTLYLQMNSLRAEDTAVYYCAKDITPGGGSGFRLPKNYYYYGMDVWGQGTTVTVSS VL: DIQMTQSPSSLSASVGDRVTITCRASQAISTNLNWYQQKPGKAPKLLIYAASSLQSGVPSRFIGSGSGTDFTLTISSLHPEDFATYHCQQTFSPPHTFGQGTKVEIQR	7.27	0.00134	184000		20.7	
M0102-G12 (Fab, V domains shown) VH: EVQLLESGGGLVQPGGSLRLSCAASGFTFSKYKMVWVRQAPGKGLEWVSSIYPSGGITAYADSVKGRFTISRDNSKNTLYLQMNSLRAEDTAMYYCAKDITPGGGSGFRLPKNYYYYGMDVWGQGTTVTVSS VL: AQSELTQPPSASGTPGQRVTISCSGTLSNIGTNIVSWFQQLPGTAPKLLIYNDHRRPSGVPDRFSGSKSATSASLAISGLQSEDEADYYCAAWDDSLNGVVFGGGTKLTVLS	5.28	0.000442	83700		3.3	
M0133-E02 (Fab, V domains shown) VH: EVQLLESGGGLVQPGGSLRLSCAASGFTFSWYTMTWVRQAPGKGLEWVSSIYPSGGHTSYADSVKGRFTISRDNSKNTLYLQMNSLRAEDTAVYYCAKDTRVGPWLVRAPLDYWGQGTLVTVSS VL: not shown	6.42	0.00146	227000		2.4	
M0138-G11 (Fab, V domains shown) VH: EVQLLESGGGLVQPGGSLRLSCAASGFTFSWYTMTWVRQAPGKGLEWVSSIYPSGGHTSYADSVKGRFTISRDNSKNTFYLQMNSLRAEDTAVYYCAKDTRVGPWLVRAPLDYWGQGTLVTVSS VL: not shown	6.19	0.00161	260000	28		
M0097-G01 (Fab, V domains shown) VH: EVQLLESGGGLVQPGGSLRLSCAASGFTFSPYYMQWVRQAPGKGLEWVSGISSSGGSTQYADSVKGRFTISRDNSKNTLYLQMNSLRAEDTAVYYCARSQRRTYYPNFGDAFDIWGQGTMVTVSS VL: DIQMTQSPSSLSASVGDRVTITCRASQGIGNYLVWYQHKPGNVPRVLIYAASTLQSGVPSRFRGSGSGTDFTLTISGLQPEDVATYYCQKYDGAPFTFGPGTKVDLKR	4.8	0.000832	173000		7.2	
